# Results as given in PMC10514136, “Peptide-conjugated antimiRs improve myotonic dystrophy type 1 phenotypes by promoting endogenous MBNL1 expression” (Molecular Therapy. Nucleic Acids, 2023).
# Several values for one entry are separate records, joined by “and”; a condition that tells them apart may be missing. Equal values may be shown once.
# Key:
# Assay type in all cases: in vivo, mouse
# [1] = ELISA determination of antimiR conjugate concentrations in tissues; details: HSALR mice, 9.2 mg/kg (mean) i.v. x3, day 45, 9.2 mg/kg; for CPP-PMO levels in tissues, in words: ELISA in kidney, liver, heart, quadriceps, gastrocnemius, brain; for CPP-PMO concentration (pM), Brain / CPP-PMO concentration (pM), Gastrocnemius / CPP-PMO concentration (pM), Heart / CPP-PMO concentration (pM), Kidney / CPP-PMO concentration (pM), Liver / CPP-PMO concentration (pM), Quadriceps: hybridization ELISA, background subtracted, individual mice
# Protocol: Custom ELISA-based measurements of antimiR conjugate concentrations in brain, kidney, liver, heart, gastrocnemius, and quadriceps from treated HSA^LR mice were performed as described in Burki et al.,[89] using the following phosphorothioate probes: for miR-218 (5′ → 3′) [DIG] T∗T∗G∗T∗G∗C∗T∗TGATCTA∗A∗C∗C∗A∗T∗G∗T [BIO]; for miR-23b (5′ → 3′) [BIO] A∗T∗C∗A∗C∗A∗T∗TGCCAGG∗G∗A∗T∗T∗A∗C∗C [DiG] double-labeled with digoxigenin (DIG) and biotin (BIO). In all cases, a control sample was used to subtract the background (HSA^LR treated with PBS for 9b2 and 9b2-KC ONs; HSA^LR treated with Scramble for 6aKC ONs).
# (§1) Mouse handling and experimental procedures followed the European law regarding laboratory animal care and experimentation (2003/65/C.E.) and were approved by Conselleria de Agricultura, Generalitat Valenciana (reference no. A1539961490857). We used homozygous transgenic HSA^LR (line 20 b) mice,[90] which were kindly provided by Dr Thornton (Rochester, NY) and were housed and bred in our animal facility. Experimental groups were FVB as healthy control and HSA^LR treated with a scrambled ON (SC) and PBS as negative controls, and HSA^LR mice treated with all six experimental CPP-PMOs. The mice were randomly allocated to the different treatments as follows: in each cage, each mouse was ear-marked as it was taken out, and each mouse was then assigned to a different treatment. Animals were injected biweekly intravenously with 150 μL of 1× PBS vehicle (controls; HSA^LR n = 7 and FVB n = 6) or 150 μL of a solution 1.875 mg/mL of the test CPP-PMOs corresponding to an average dose of 9.2 mg/kg (HSA^LR mice: SC n = 5, 9b2-218 n = 5, 9b2-23b n = 5, 9b2KC-218 n = 5, 9b2KC-218 n = 5, 6aKC-218 n = 5, and 6aKC-23b n = 5; see Table S6 for precise dosing). Mice were sacrificed 45 days after the first injection and the tissues of interest were frozen in liquid nitrogen for the molecular and histological assays. All the mice used in this study ranged from 5 to 5.5 months of age and all were males.
# [2] = Bodyweight-normalized spleen weight and body weight; details: mouse, in vivo, iv, 9.2 mg/kg
# Excerpt: as §1, with “Generalitat Valenciana” left out, “Experimental groups were FVB as healthy control and HSA^LR treated with a scrambled ON (SC) and PBS as negative controls, and HSA^LR mice treated with all six experimental CPP-PMOs.” left out, “HSA^LR n = 7 and FVB n = 6) or 150 μL of a solution 1.875 mg/mL of the test CPP-PMOs corresponding to an average dose of 9.2 mg/kg (HSA^LR mice: SC n = 5, 9b2-218 n = 5, 9b2-23b n = 5, 9b2KC-218 n = 5, 9b2KC-218 n = 5, 6aKC-218 n = 5, and 6aKC-23b n = 5; see Table S6 for precise dosing).” left out
# Clcn1 exon 7a = experiment: Alternative splicing of Clcn1 exon 7a in muscle by RT-PCR (PSI, splice recovery); details: HSALR mice, individual mice; for Percentage spliced-in (PSI) Clcn1 Gast: 9.2 mg/kg (mean) i.v. x3, day 45, gastrocnemius; for Percentage spliced-in (PSI) Clcn1 Quads: 9.2 mg/kg (mean) i.v. x3, day 45, quadriceps
# Protocol: Total RNA from murine gastrocnemius and quadriceps muscle was isolated using the miRNeasy Mini Kit (QIAGEN, Hilden, Germany) according to the manufacturer’s instructions. One microgram of RNA was digested with DNase I (Invitrogen, Carlsbad, CA) and reverse transcribed with SuperScript II (Invitrogen) using random hexanucleotides. For subsequent PCR reactions, 20 ng of cDNA was used with GoTaq polymerase (Promega). Specific primers were used to analyze the alternative splicing of Nfix, Atp2a1, and Clcn1 in mouse samples (both muscles). Gapdh levels established the endogenous reference levels using 0.2 ng of cDNA. PCR products were separated on a 2% agarose gel and quantified using ImageJ software (NIH, Bethesda, MD). PSR index was defined as value%SI minus X¯%DSI , divided by X¯%DSI minus X¯%HSI (SI, splicing inclusion of each sample; DSI, disease splicing inclusion; HSI, healthy splicing inclusion). Overall, PSR indicates the amount in both muscles analyzed. Primer sequences and exons analyzed are available in Cerro-Herreros et al.[20] In the case of off-targets, interleukins, and muscle regeneration marker Mstn-1, primers sequences are available in Table S5. We used 1 ng of mouse tissue cDNA as a template for multiplex qPCR using the QuantiFast Probe PCR Kit reagent. Commercial TaqMan probes (QIAGEN) were used for mouse (Mbnl1 and Mbnl2; FAM-labeled probes) and reference (GAPDH; MAX-labeled probe) genes. Results were normalized to Gapdh endogenous gene expression.
# We used homozygous transgenic HSA^LR (line 20 b) mice,[90] which were kindly provided by Dr Thornton (Rochester, NY) and were housed and bred in our animal facility. Experimental groups were FVB as healthy control and HSA^LR treated with a scrambled ON (SC) and PBS as negative controls, and HSA^LR mice treated with all six experimental CPP-PMOs. The mice were randomly allocated to the different treatments as follows: in each cage, each mouse was ear-marked as it was taken out, and each mouse was then assigned to a different treatment. […] Mice were sacrificed 45 days after the first injection and the tissues of interest were frozen in liquid nitrogen for the molecular and histological assays. All the mice used in this study ranged from 5 to 5.5 months of age and all were males.
# HSALR mice = experiment: White blood cell differential count; details: mouse, in vivo, iv, 9.2 mg/kg
# Excerpt: Mouse handling and experimental procedures followed the European law regarding laboratory animal care and experimentation (2003/65/C.E.) and were approved by Conselleria de Agricultura, […] (reference no. A1539961490857). We used homozygous transgenic HSA^LR (line 20 b) mice,[90] which were kindly provided by Dr Thornton (Rochester, NY) and were housed and bred in our animal facility. […] The mice were randomly allocated to the different treatments as follows: in each cage, each mouse was ear-marked as it was taken out, and each mouse was then assigned to a different treatment. Animals were injected biweekly intravenously with 150 μL of 1× PBS vehicle (controls; […] Mice were sacrificed 45 days after the first injection and the tissues of interest were frozen in liquid nitrogen for the molecular and histological assays. All the mice used in this study ranged from 5 to 5.5 months of age and all were males. At 45 days post treatment, animals were sacrificed, and blood was collected by cardiac puncture exsanguination with K3-EDTA (Sarstedt, Nümbrecht, Germany). The samples were analyzed by Laboratorios Montoro Botella (Valencia, Spain).
Substance,"CPP-PMO levels in tissues, in words [1]","CPP-PMO levels in tissues, in words ([1]; listed as 9bKC-23b)","CPP-PMO concentration (pM), Brain [1]","CPP-PMO concentration (pM), Gastrocnemius [1]","CPP-PMO concentration (pM), Heart [1]","CPP-PMO concentration (pM), Kidney [1]","CPP-PMO concentration (pM), Liver [1]","CPP-PMO concentration (pM), Quadriceps [1]",Weight [2],Percentage spliced-in (PSI) Clcn1 Gast (Clcn1 exon 7a),Percentage spliced-in (PSI) Clcn1 Quads (Clcn1 exon 7a),Basophils (HSALR mice),Eosinophils (HSALR mice),Lymphocytes (HSALR mice),Monocytes (HSALR mice),Seg cells (HSALR mice)
"9b2KC-23b (antisense GGUAAUCCCUGGCAAUGUGAU; all phosphorodiamidate morpholino (PMO), T or U not given here; Pip9b2KC peptide conjugated)",lower muscle levels,accumulation in liver was higher compared with our target tissues,17.78 pM and 0.01 pM and 0.87 pM,3.32 pM and 2.34 pM and 0.01 pM,256.63 pM and 2.97 pM and 105.40 pM,404860.30 pM and 2213436.59 pM and 1672927.68 pM,113314.70 pM and 27707.42 pM and 93287.30 pM,127.62 pM and 457.08 pM and 0.82 pM,"32,22 ± 5,551 g",18.78% and 26.33% and 30.11% and 15.58% and 38.58%,29.66% and 22.47% and 19.41% and 27.99% and 26.94%,0 ± 0%,"9,50 ± 3,109%","60,25 ± 6,185%","5,75 ± 2,363%","23,5 ± 4,203%"
"9b2KC-218 (antisense ACAUGGUUAGAUCAAGCACAA; all phosphorodiamidate morpholino (PMO), T or U not given here; Pip9b2KC peptide conjugated)",,,6.68 pM and 4.47 pM and 1017.83 pM,726.85 pM and 1065.08 pM and 788.22 pM,1724.69 pM and 184.66 pM and 108.67 pM,1320762.73 pM and 1455590.50 pM and 1409556.69 pM,12456.78 pM and 13391.72 pM and 5588.09 pM,37.03 pM and 1605.97 pM and 358.44 pM,"31,28 ± 4,11 g",32.73% and 22.25% and 31.59% and 22.57% and 29.41%,2.19% and 27.06% and 25.84% and 30.53% and 22.73%,0 ± 0%,"7,20 ± 2,28%","59,60 ± 3,130%","6,40 ± 2,074%","25,8 ± 4,324%"
